Assay results: paper doi:10.1101/2020.12.08.416701

Experiments:
[1] = target: TβRI ectodomain (human) (UniProt P36897); experiment: ITC
[2] = target: TβRII ectodomain (human) (UniProt P37173); experiment: ITC
[3] = target: biotinylated avi-tagged TβRI (human) (UniProt P36897); experiment: SPR
[4] = target: biotinylated avi-tagged TβRII (human) (UniProt P37173); experiment: SPR
[5] = target: TβRI ectodomain (human) (UniProt P36897); experiment: SEC-MALS

TβRI ectodomain (human), sequence (P36897 34-126): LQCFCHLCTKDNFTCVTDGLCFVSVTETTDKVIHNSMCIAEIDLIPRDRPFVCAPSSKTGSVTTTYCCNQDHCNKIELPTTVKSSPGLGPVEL
TβRII ectodomain (human), sequence (P37173 23-166): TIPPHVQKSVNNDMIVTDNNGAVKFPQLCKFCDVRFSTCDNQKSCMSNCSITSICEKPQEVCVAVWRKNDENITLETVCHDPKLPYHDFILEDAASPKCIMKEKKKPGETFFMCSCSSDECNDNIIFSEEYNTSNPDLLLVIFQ
biotinylated avi-tagged TβRI (human), sequence (P36897 34-503): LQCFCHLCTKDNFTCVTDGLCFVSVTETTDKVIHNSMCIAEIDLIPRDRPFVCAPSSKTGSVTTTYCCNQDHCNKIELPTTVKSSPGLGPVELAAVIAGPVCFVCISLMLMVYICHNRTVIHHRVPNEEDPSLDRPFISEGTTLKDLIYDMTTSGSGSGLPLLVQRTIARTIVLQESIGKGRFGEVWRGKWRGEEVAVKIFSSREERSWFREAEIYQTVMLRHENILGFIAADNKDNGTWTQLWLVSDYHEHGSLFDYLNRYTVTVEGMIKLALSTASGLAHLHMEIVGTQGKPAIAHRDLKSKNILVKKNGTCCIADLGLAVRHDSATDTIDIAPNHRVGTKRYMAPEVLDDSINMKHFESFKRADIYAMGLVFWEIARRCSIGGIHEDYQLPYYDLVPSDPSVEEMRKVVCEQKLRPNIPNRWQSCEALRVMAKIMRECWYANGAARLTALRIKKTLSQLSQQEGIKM
TGF-β3:TβRII binary complex, sequence (P37173 whole entry, looked up, one chain of several): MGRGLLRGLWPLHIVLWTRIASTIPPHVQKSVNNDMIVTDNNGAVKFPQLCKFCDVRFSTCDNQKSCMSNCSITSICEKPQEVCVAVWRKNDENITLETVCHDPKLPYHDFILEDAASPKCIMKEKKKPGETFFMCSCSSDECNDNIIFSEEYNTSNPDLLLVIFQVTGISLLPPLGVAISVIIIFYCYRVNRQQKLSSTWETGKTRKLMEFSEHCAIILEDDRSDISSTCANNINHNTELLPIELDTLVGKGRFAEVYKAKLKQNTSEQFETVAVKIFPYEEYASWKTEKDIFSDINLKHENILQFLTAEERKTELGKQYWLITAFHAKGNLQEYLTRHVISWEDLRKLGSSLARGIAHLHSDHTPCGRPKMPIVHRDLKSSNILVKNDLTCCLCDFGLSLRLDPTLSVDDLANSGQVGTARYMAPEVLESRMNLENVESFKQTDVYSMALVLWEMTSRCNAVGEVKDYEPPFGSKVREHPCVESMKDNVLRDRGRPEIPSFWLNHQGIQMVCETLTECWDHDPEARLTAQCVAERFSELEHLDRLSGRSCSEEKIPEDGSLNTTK
biotinylated avi-tagged TβRII (human), sequence (P37173 23-567): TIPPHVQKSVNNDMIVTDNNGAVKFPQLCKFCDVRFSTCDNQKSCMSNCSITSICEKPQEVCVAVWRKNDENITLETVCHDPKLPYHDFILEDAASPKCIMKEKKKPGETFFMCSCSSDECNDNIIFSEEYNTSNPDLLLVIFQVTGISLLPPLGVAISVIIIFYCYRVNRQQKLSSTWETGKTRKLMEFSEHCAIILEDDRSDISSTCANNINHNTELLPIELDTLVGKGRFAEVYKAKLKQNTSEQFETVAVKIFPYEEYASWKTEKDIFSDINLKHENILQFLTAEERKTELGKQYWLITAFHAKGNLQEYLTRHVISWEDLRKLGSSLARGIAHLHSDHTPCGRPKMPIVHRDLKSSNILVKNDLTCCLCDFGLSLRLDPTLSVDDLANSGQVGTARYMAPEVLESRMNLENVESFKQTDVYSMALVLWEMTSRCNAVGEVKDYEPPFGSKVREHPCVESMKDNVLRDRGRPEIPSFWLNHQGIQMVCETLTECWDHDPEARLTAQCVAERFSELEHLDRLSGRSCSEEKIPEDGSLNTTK

Kd [1] | dH [1] | Kd [2] | dH [2] | Kd [3] | Kd [4] | stoichiometry N [5] | Substance
52.1 nM | -16.7 kcal/mol | 550 nM | -7.14 kcal/mol | 13.1 nM | 610 nM |  | full-length TGM (TGF-β mimic of Heligmosomoides polygyrus) (natural protein)
61.7 nM | -4.21 kcal/mol |  |  |  |  |  | TGF-β3:TβRII binary complex (from UniProt P37173 23-166)
 |  | 1150 nM | -10.7 kcal/mol |  | 910 nM |  | TGM domain 3 (domain or fragment)
1470 nM | -17.7 kcal/mol |  |  | 309 nM |  | 1 | TGM domain 2 (domain or fragment)
25.3 nM | -18.7 kcal/mol |  |  | 24100 nM |  |  | TGM domains 1 and 2 (domain or fragment)
